The source of these data is patent US10494417B2, “Peptide inhibitors of BCR-ABL oligomerization” (University of Utah Research Foundation, priority 2014, dated 2019).

“Also recorded” adds a separate entry of the source.

Assay [1] deals with T1, isolated CC domain from Bcr-Abl (Homo sapiens, UniProt P11274).
T1 construct: using the isolated CC domain from Bcr-Abl instead of the full-length protein; expressed in transfected cells
T1 sequence (P11274 1-72): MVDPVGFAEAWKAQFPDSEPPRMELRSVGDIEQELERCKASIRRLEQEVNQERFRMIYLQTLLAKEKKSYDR
Description: Mammalian two-hybrid assay of coiled-coil dimerization. The format is cell-based. Particulars: isolated CC domain from Bcr-Abl. The procedure:
(§1) As mentioned above, the design process of CC^mut3 involved favoring hetero-dimerization with Bcr-Abl while avoiding homo-dimerization with another CC^mut3 molecule. Thus, a mammalian two-hybrid assay was performed to measure the likelihood of each scenario, using the isolated CC domain from Bcr-Abl instead of the full-length protein (for ease of use).

Assay [2] concerns the target T2, isolated CC domain from Bcr-Abl (Homo sapiens, UniProt P11274, C38A/E48R/K39E/L45D/Q60E/S41R).
T2 construct: using the isolated CC domain from Bcr-Abl instead of the full-length protein; expressed in transfected cells
T2 sequence (P11274 1-72 C38A/K39E/S41R/L45D/E48R/Q60E): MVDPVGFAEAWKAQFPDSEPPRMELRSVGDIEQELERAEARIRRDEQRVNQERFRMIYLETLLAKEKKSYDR
The assay is described as above. Particulars: CC^mut3 with CC^mut3. It is filed as cell-based. Here is the method:
as §1

The subject of assay [3] is Ba/F3 cells expressing BCR-ABL1E255V/T315I. Briefly: Proliferation of transfected Ba/F3 BCR-ABL1 E255V/T315I cells (MTS assay). The format is cell-based, mouse. The conditions noted are these: MTS assay at 72 and 96 h, CCmut3 vs EV. Here is the method: Stable recombinant Ba/F3 cells transduced with wild type p210 BCR-ABL1 (Daley, G. Q., et al. (1991) Proc. Natl. Acad. Sci. U.S.A. 88, 11335-11338), the kinase domain mutants p210^T315I p210^[…], or the compound mutant p210^E255V/T315I were as previously described (La Rosee, P., et al. (2002) Cancer Res. 62, 7149-7153; O'Hare, T., et al. (2004) Blood 104, 2532-2539). These cells were cultured in RPMI with 10% FBS, 1% penicillin, streptomycin, glutamine, and 0.1% gentamycin (RPMI1640). Additionally 0.1% MycoZap™ (Lonza Bio, Basel, Switzerland) was added to prevent mycoplasma contamination. […]
Cell proliferation was assessed using the CellTiter 96® AQueous One Solution Cell Proliferation Assay (MTS assay, Promega) according to manufacturer instructions. […] In some experiments, cell proliferation was assessed using a Neubauer chamber and trypan blue dye exclusion. […]
Cell proliferation was assessed using a […] viability assay (MTS assay) utilizing CellTiter 96® AQueous One Solution Cell Proliferation Assay (Promega) according to manufacturer instructions. […] Cell growth was assessed by MTS assay at 72 and 96 h. […] In patient sample experiments, cell proliferation was assessed by trypan blue exclusion.

Assay [4] deals with CML CD34+ cells expressing BCR-ABL1T315I. Briefly: Colony forming assay of primary CML CD34+ cells expressing BCR-ABL1T315I (samples R1, R2). It is filed as cell-based, human. The procedure: Mononuclear cells (MNCs) were separated from the peripheral blood of patients with newly diagnosed or therapy-resistant CML with a documented T315I mutation, using Ficoll (Nycomed, Oslo, Norway). Isolation of the CD34^+ fraction was done on an autoMACS Pro (Miltenyi Biotech). […] Cells were infected with lentivirus at a multiplicity of infection (MOI) of 5 for each construct at 24 and 48 hours following harvest (fresh cells) or thaw (frozen cells). Cells were sorted on a BD FACSAria cytometer after 72 h, and GFP-positive cells were returned to culture medium for future experiments. All patients gave their informed consent in accordance with the Declaration of Helsinki, and all studies with human specimens were approved by The University of Utah Institutional Review Board (IRB).
Briefly, lentivirus-infected (GFP^+) cells were isolated by FACS and resuspended in RPMI1640. […] Plates were incubated at 37° C. in a 5% CO2 humidified incubator for 14 days. Colony forming units of granulocyte-macrophage (CFU-GM) were counted on day 14 using an inverted microscope.
All cells were plated with or without the indicated TKI in three or more independent experiments. Plates were incubated at 37° C. in a 5% CO2 humidified incubator. Colonies were counted 7-14 days later in an area of 50 μm2 per dish using an inverted microscope.

[5] abbreviates: sample R1 (accelerated phase), lentiviral CCmut3 or 10 nM ponatinib vs EV.

B1: CCmut3: modified Bcr-Abl coiled-coil domain (residues 1-72) with mutations C38A, K39E, S41R, L45D, E48R, Q60E (protein)
chain: MVDPVGFAEAWKAQFPDSEPPRMELRSVGDIEQELERAEARIRRDEQRVNQERFRMIYLETLLAKEKKSYDR
As for B1, the “hetero-dimerization with BCR-ABL” value in assay [1] is recorded as “favors hetero-dimerization; also recorded: strongly favors hetero-dimerization”. Also, the homo-oligomerization entry in assay [2] is on record as “strongly disfavoring homo-oligomerization”. Further, the “proliferation, in words” value was “small yet significant growth reduction at 96 h but not 72 h; also recorded: significantly reduced proliferation of compound mutant cells at 96 h” in assay [3] and “significant growth reduction at 96 h; also recorded: smaller yet significant reduction in proliferation at 96 h” in assay [3] (listed as CC^mut3). For the same molecule, the “colony formation, in words” value in assay [4] (setting [5]) is recorded as “even greater sensitivity to transduction with CCmut3”; in assay [4] (sample R1 (accelerated phase), lentiviral CCmut3 or 10 nM ponatinib vs EV, listed as CC^mut3), “reduced colony formation to a similar degree”; in assay [4] (sample R2 (blast crisis, after ponatinib failure), lentiviral CCmut3 or ponatinib vs EV), “only minimal activity”; in assay [4] (sample R2 (blast crisis, after ponatinib failure), lentiviral CCmut3 or ponatinib vs EV, listed as CC^mut3) it was “insensitive”. Moreover, the “reduction of colony formation” value was 76% in assay [4] (setting [5]) and around 25% in assay [4] (sample R2 (blast crisis, after ponatinib failure), lentiviral CCmut3 vs EV).
